B1: CEA/CD3 “2+1 IgG Crossfab, inverted (CL/CH1)”; CL/CH1 exchange (CH1A1A/V9) (bispecific antibody)
heavy 1: not shown
heavy 2: QVQLVQSGAEVKKPGASVKVSCKASGYTFTEFGMNWVRQAPGQGLEWMGWINTKTGEATYVEEFKGRVTFTTDTSTSTAYMELRSLRSDDTAVYYCARWDFAYYVEAMDYWGQGTTVTVSSASTKGPSVFPLAPSSKSTSGGTAALGCLVKDYFPEPVTVSWNSGALTSGVHTFPAVLQSSGLYSLSSVVTVPSSSLGTQTYICNVNHKPSNTKVDKKVEPKSCDKTHTCPPCPAPEAAGGPSVFLFPPKPKDTLMISRTPEVTCVVVDVSHEDPEVKFNWYVDGVEVHNAKTKPREEQYNSTYRVVSVLTVLHQDWLNGKEYKCKVSNKALGAPIEKTISKAKGQPREPQVCTLPPSRDELTKNQVSLSCAVKGFYPSDIAVEWESNGQPENNYKTTPPVLDSDGSFFLVSKLTVDKSRWQQGNVFSCSVMHEALHNHYTQKSLSLSPGK
light 1: DIQMTQSPSSLSASVGDRVTITCKASAAVGTYVAWYQQKPGKAPKLLIYSASYRKRGVPSRFSGSGSGTDFTLTISSLQPEDFATYYCHQYYTYPLFTFGQGTKLEIKRTVAAPSVFIFPPSDEQLKSGTASVVCLLNNFYPREAKVQWKVDNALQSGNSQESVTEQDSKDSTYSLSSTLTLSKADYEKHKVYACEVTHQGLSSPVTKSFNRGEC
light 2: DIQMTQSPSSLSASVGDRVTITCRASQDIRNYLNWYQQKPGKAPKLLIYYTSRLESGVPSRFSGSGSGTDYTLTISSLQPEDFATYYCQQGNTLPWTFGQGTKVEIKSSASTKGPSVFPLAPSSKSTSGGTAALGCLVKDYFPEPVTVSWNSGALTSGVHTFPAVLQSSGLYSLSSVVTVPSSSLGTQTYICNVNHKPSNTKVDKKVEPKSC
notes: 66 is the DNA of 65; also called CL/CH1-exchange construct
B2: CEA/CD3 “2+1 IgG Crossfab, inverted (VL/VH)”; VL/VH exchange (CH1A1A/V9) (bispecific antibody)
heavy 1: not shown
heavy 2: B1 heavy 2
light 1: B1 light 1
light 2: EVQLVESGGGLVQPGGSLRLSCAASGYSFTGYTMNWVRQAPGKGLEWVALINPYKGVSTYNQKFKDRFTISVDKSKNTAYLQMNSLRAEDTAVYYCARSGYYGDSDWYFDVWGQGTLVTVSSASVAAPSVFIFPPSDEQLKSGTASVVCLLNNFYPREAKVQWKVDNALQSGNSQESVTEQDSKDSTYSLSSTLTLSKADYEKHKVYACEVTHQGLSSPVTKSFNRGEC
notes: also called VL/VH-exchange construct
B3: “2+1 IgG scFab, P329G LALA” (anti-EGFR/anti-huCD3) (bispecific antibody)
heavy 1: not shown
heavy 2: QVQLVQSGAEVKKPGSSVKVSCKASGFTFTDYKIHWVRQAPGQGLEWMGYFNPNSGYSTYAQKFQGRVTITADKSTSTAYMELSSLRSEDTAVYYCARLSPGGYYVMDAWGQGTTVTVSSASTKGPSVFPLAPSSKSTSGGTAALGCLVKDYFPEPVTVSWNSGALTSGVHTFPAVLQSSGLYSLSSVVTVPSSSLGTQTYICNVNHKPSNTKVDKKVEPKSCDKTHTCPPCPAPEAAGGPSVFLFPPKPKDTLMISRTPEVTCVVVDVSHEDPEVKFNWYVDGVEVHNAKTKPREEQYNSTYRVVSVLTVLHQDWLNGKEYKCKVSNKALGAPIEKTISKAKGQPREPQVCTLPPSRDELTKNQVSLSCAVKGFYPSDIAVEWESNGQPENNYKTTPPVLDSDGSFFLVSKLTVDKSRWQQGNVFSCSVMHEALHNHYTQKSLSLSPGK
light: DIQMTQSPSSLSASVGDRVTITCRASQGINNYLNWYQQKPGKAPKRLIYNTNNLQTGVPSRFSGSGSGTEFTLTISSLQPEDFATYYCLQHNSFPTFGQGTKLEIKRTVAAPSVFIFPPSDEQLKSGTASVVCLLNNFYPREAKVQWKVDNALQSGNSQESVTEQDSKDSTYSLSSTLTLSKADYEKHKVYACEVTHQGLSSPVTKSFNRGEC
B4: “1+1 IgG scFab, one armed” (anti-EGFR/anti-huCD3) (bispecific antibody)
heavy 1: not shown
heavy 2: B3 heavy 2
light: B3 light
B5: “1+1 IgG scFab, one armed inverted” (anti-MCSP/anti-huCD3) (bispecific antibody)
heavy 1: DIVLTQSPSSLSASLGDRVTISCSASQGIRNYLNWYQQRPDGTVKLLIYYTSSLHSGVPSRFSGSGSGTDYSLTISNLEPEDIATYYCQQYSKLPWTFGGGTKLEIKRTVAAPSVFIFPPSDEQLKSGTASVVCLLNNFYPREAKVQWKVDNALQSGNSQESVTEQDSKDSTYSLSSTLTLSKADYEKHKVYACEVTHQGLSSPVTKSFNRGECSGGGSGGGSEGGGSEGGGSEGGGSEGGGSGGGSGEVQLQESGPGLVKPSQSLSLTCSVTGYSITSGYYWNWIRQFPGNKLEWMGYITYDGSNNYNPSLKNRISITRDTSKNQFFLKLNSVTTEDTATYYCADFDYWGQGTTLTVSSASTKGPSVFPLAPSSKSTSGGTAALGCLVKDYFPEPVTVSWNSGALTSGVHTFPAVLQSSGLYSLSSVVTVPSSSLGTQTYICNVNHKPSNTKVDKKVEPKSCDGGGGSGGGGSGAQDKTHTCPPCPAPEAAGGPSVFLFPPKPKDTLMISRTPEVTCVVVDVSHEDPEVKFNWYVDGVEVHNAKTKPREEQYNSTYRVVSVLTVLHQDWLNGKEYKCKVSNKALPAPIEKTISKAKGQPREPQVCTLPPSRDELTKNQVSLSCAVKGFYPSDIAVEWESNGQPENNYKTTPPVLDSDGSFFLVSKLTVDKSRWQQGNVFSCSVMHEALHNHYTQKSLSLSPGK
heavy 2: not shown
light: not shown
B6: “1+1 IgG scFab, one armed” (anti-MCSP/anti-huCD3) (bispecific antibody)
heavy 1: not shown
heavy 2: not shown
light: DIVLTQSPSSLSASLGDRVTISCSASQGIRNYLNWYQQRPDGTVKLLIYYTSSLHSGVPSRFSGSGSGTDYSLTISNLEPEDIATYYCQQYSKLPWTFGGGTKLEIKRTVAAPSVFIFPPSDEQLKSGTASVVCLLNNFYPREAKVQWKVDNALQSGNSQESVTEQDSKDSTYSLSSTLTLSKADYEKHKVYACEVTHQGLSSPVTKSFNRGEC

Tests used:
[1] = biological target: T1, human CEA expressed on tumor cells (human, UniProt P06731 35-702); assay: cell-based or functional assay
T1 sequence (looked up): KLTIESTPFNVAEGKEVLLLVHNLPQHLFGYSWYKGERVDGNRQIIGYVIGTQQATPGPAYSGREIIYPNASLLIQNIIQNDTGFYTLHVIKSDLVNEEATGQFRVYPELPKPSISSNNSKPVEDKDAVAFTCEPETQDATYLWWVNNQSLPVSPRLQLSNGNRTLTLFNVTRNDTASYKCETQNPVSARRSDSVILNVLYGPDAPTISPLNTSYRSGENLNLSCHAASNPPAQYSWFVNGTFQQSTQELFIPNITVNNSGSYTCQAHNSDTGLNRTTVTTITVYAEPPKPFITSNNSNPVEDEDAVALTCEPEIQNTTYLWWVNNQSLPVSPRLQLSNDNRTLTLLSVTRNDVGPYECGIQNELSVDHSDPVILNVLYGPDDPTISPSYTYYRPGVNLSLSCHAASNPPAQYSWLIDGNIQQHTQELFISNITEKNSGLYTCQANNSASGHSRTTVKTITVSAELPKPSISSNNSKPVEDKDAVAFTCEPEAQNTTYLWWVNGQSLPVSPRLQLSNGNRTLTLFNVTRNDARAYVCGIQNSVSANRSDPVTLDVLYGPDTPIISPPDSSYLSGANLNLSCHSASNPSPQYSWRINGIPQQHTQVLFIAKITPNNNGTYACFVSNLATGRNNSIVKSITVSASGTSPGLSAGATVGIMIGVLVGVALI

[2] = biological target: T2, human CD3 expressed on Jurkat cells (human, UniProt P07766 23-207); assay: flow cytometry on Jurkat cells
T2 construct: CD3 complex on Jurkat cells (ATCC TIB-152); also called huCD3
Procedure: (§1) Binding of the different bispecific constructs to CD3 on Jurkat cells (ATCC #TIB-152), and the respective tumor antigen on target cells, was determined by FACS. Briefly, cells were harvested, counted and checked for viability. 0.15 - 0.2 million cells per well (in PBS containing 0.1% BSA; 90 µl) were plated in a round-bottom 96-well plate and incubated with the indicated concentration of the bispecific constructs and corresponding IgG controls (10 µl) for 30 min at 4° C. For a better comparison, all constructs and IgG controls were normalized to same molarity. After the incubation, cells were centrifuged (5 min, 350 × g), washed with 150 µl PBS containing 0.1% BSA, resuspended and incubated for further 30 min at 4° C. with 12 µl/well of a FITC-or PE-conjugated secondary antibody. Bound constructs were detected using a FACSCantoII (Software FACS Diva). The “(scFv)₂” molecule was detected using a FITC-conjugated anti-His antibody (Lucerna, #RHIS-45F-Z). For all other molecules, a FITC- or PE-conjugated AffiniPure F(ab′)2 Fragment goat anti-human IgG Fcγ Fragment Specific (Jackson Immuno Research Lab # 109-096-098 / working solution 1:20, or #109-116-170 / working solution 1:80, respectively) was used. Cells were washed by addition of 120 µl/well PBS containing 0.1% BSA and centrifugation at 350 × g for 5 min. A second washing step was performed with 150 µl/well PBS containing 0.1% BSA. Unless otherwise indicated, cells were fixed with 100 µl/well fixation buffer (BD #554655) for 15 min at 4° C. in the dark, centrifuged for 6 min at 400 × g and kept in 200 µl/well PBS containing 0.1% BSA until the samples were measured with FACS CantoII. EC50 values were calculated using the GraphPad Prism software.
(§2) As a control, the equivalent maximum concentration of the corresponding IgGs and the background staining due to the labeled 2ndary antibody (goat anti-human FITC-conjugated AffiniPure F(ab′)2 Fragment, Fcγ Fragment-specific, Jackson Immuno Research Lab # 109-096-098) were assessed as well.

[3] = biological target: T1, human CEA expressed on tumor cells; assay: flow cytometry on LS-174T cells
Procedure: Binding of the different bispecific constructs to CD3 on Jurkat cells (ATCC #TIB-152), and the respective tumor antigen on target cells, was determined by FACS. Briefly, cells were harvested, counted and checked for viability. 0.15 - 0.2 million cells per well (in PBS containing 0.1% BSA; 90 µl) were plated in a round-bottom 96-well plate and incubated with the indicated concentration of the bispecific constructs and corresponding IgG controls (10 µl) for 30 min at 4° C. For a better comparison, all constructs and IgG controls were normalized to same molarity. […] Bound constructs were detected using a FACSCantoII (Software FACS Diva). The “(scFv)₂” molecule was detected using a FITC-conjugated anti-His antibody (Lucerna, #RHIS-45F-Z). […] Unless otherwise indicated, cells were fixed with 100 µl/well fixation buffer (BD #554655) for 15 min at 4° C. in the dark, centrifuged for 6 min at 400 × g and kept in 200 µl/well PBS containing 0.1% BSA until the samples were measured with FACS CantoII. EC50 values were calculated using the GraphPad Prism software.
as §2

[4] = biological target: T3, Human EGFR (immobilized on CM5 sensor chip) (human, UniProt P00533 25-645, limits assumed); assay: SPR; construct (200 nM) captured on immobilized human EGFR, then CD3 fusion injected (FIG. 18A)
T3 construct: 8000 RU immobilized by amine coupling; also called Epidermal Growth Factor Receptor
Procedure: (§3) Analysis of simultaneous binding of the T-cell bispecific constructs to the tumor antigen and the human CD3ε was performed by direct coupling of 1650 resonance units (RU) of biotinylated D3 domain of MCSP on a sensor chip SA using the standard coupling procedure. Human EGFR was immobilized using standard amino coupling procedure. 8000 RU were immobilized on a CM5 sensor chip at pH 5.5.
(§4) Different T-cell bispecific constructs were captured for 60 s at 200 nM. Human CD3γ(G₄S)₅CD3ε-AcTev-Fc(knob)-Avi/Fc(hole) was subsequently passed at a concentration of 2000 nM and a flow rate of 40 µl/min for 60 s. Bulk refractive index differences were corrected for by subtracting the response obtained on a reference flow cell where the recombinant CD3ε was flown over a surface with immobilized D3 domain of MCSP or EGFR without captured T-cell bispecific constructs.

[5] = biological target: T3, Human EGFR (immobilized on CM5 sensor …); assay: SPR; construct (200 nM) captured on immobilized human EGFR, then CD3 fusion injected (FIG. 18B)
Procedure: as §3, §4

[6] = biological target: T2, human CD3 expressed on Jurkat cells; assay: flow cytometry on Jurkat cells, 50 nM
Procedure: as §1
(§5) In a first experiment, different bispecific constructs targeting human MCSP and human CD3 were analyzed by flow cytometry for binding to human CD3 expressed on Jurkat, human T cell leukaemia cells, or to human MCSP on Colo-38 human melanoma cells.

[7] = biological target: T4, human MCSP expressed on tumor cells (human, UniProt Q6UVK1 30-2322); assay: flow cytometry on Colo-38 cells, 50 nM
T4 construct: whole, on cells; On Colo-38, WM266-4, MV-3 or MDA-MB-435 cells, as named in each row; also called huMCSP; Melanoma-associated Chondroitin Sulfate Proteoglycan
Procedure: as §1, §5

T2 sequence (P07766 23-207 limits assumed): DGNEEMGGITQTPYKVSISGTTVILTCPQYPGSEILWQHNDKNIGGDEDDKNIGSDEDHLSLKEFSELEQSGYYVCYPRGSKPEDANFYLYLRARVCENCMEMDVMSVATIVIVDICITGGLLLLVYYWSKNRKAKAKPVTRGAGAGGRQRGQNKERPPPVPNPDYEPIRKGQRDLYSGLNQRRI
T4 sequence (Q6UVK1 30-2322): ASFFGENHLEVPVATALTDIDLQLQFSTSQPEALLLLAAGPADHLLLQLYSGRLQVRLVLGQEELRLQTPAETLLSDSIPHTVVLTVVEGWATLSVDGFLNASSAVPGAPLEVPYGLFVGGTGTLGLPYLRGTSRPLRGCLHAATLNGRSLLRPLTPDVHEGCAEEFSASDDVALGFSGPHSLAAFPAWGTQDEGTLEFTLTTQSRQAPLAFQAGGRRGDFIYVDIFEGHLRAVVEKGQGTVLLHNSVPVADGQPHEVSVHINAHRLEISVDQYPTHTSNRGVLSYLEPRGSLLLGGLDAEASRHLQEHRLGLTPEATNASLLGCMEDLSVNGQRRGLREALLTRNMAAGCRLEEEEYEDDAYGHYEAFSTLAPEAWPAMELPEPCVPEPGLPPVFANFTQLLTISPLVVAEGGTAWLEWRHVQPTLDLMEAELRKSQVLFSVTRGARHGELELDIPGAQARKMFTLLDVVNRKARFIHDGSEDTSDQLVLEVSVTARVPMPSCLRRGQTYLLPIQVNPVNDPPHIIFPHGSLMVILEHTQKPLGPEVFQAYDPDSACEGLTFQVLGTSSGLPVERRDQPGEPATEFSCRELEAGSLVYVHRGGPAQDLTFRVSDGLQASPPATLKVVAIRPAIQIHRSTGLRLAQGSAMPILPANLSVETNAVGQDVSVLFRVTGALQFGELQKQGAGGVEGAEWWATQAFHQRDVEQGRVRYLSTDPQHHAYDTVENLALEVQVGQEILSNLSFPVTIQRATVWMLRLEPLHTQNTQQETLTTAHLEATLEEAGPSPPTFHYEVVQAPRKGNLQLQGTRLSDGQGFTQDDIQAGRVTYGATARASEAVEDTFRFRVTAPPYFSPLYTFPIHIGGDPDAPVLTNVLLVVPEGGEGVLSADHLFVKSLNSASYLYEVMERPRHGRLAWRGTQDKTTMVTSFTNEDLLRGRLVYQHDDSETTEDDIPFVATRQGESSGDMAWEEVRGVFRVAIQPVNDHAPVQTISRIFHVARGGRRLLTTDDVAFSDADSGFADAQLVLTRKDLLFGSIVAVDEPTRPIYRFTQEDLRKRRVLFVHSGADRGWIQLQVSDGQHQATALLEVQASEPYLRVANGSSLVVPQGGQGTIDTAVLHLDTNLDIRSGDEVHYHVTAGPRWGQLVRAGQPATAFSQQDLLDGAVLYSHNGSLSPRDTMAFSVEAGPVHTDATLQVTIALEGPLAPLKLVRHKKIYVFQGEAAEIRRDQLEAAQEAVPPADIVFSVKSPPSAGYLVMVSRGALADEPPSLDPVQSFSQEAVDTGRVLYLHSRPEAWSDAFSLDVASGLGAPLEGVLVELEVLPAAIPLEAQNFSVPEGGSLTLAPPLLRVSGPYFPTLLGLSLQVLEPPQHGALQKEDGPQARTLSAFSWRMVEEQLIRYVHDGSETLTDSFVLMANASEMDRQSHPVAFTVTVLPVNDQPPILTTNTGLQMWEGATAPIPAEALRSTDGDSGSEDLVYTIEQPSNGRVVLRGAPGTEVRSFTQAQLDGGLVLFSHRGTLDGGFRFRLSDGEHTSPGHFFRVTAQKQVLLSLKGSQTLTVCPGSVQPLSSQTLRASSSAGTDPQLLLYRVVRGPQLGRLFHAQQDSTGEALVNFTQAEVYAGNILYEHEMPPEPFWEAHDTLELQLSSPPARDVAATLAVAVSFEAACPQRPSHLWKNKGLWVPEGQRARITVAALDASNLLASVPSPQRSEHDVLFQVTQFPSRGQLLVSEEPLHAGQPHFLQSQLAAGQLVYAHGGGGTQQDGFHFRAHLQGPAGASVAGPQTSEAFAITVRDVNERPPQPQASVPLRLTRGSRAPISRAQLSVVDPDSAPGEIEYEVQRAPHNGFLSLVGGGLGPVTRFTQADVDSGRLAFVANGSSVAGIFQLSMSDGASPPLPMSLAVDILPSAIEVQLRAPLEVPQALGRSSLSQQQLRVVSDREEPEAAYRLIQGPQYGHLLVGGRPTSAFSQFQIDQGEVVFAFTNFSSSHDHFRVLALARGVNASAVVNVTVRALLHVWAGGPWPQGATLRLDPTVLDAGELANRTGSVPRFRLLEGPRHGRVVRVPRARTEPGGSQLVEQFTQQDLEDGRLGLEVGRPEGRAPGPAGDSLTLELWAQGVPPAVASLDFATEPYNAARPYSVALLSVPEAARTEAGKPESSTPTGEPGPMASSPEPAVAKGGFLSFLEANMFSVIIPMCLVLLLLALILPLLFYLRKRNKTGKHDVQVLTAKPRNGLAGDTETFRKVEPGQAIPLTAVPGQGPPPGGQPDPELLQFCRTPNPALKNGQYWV

Binder | EC50 of killing (LDH release) of LS-174T cells, human PBMCs, E:T 10:1, 28 h [1] [nM] | EC50 of killing (LDH release) of MKN-45 cells, human PBMCs, E:T 10:1, 28 h [1] [nM] | EC50 [2] [nM] | EC50 [3] [nM] | binding result [6] | binding result [7] | further results
B1 | 0.673 | 0.115 | 3.9 | 6.7 | – | – | –
B2 | 0.955 | 0.243 | 4.6 | 9.3 | – | – | –
B3 | – | – | – | – | – | – | binding result [4]: binds
B4 | – | – | – | – | – | – | binding result [5]: binds
B5 | – | – | – | – | binds | binds | –
B6 | – | – | – | – | binds | binds | –
